Patent publication US20230149509A1 (Genentech, published 2023)

Key:
[1] = target: T1, CD122/CD132 on cynomolgus monkey lymphocytes (CD8+ T cells and NK cells in cynomolgus PBMCs) (cynomolgus monkey, UniProt Q38J85 27-551; A0A2K5VGJ6 23-369); experiment: cell-based or functional assay
T1 sequence (looked up) 1: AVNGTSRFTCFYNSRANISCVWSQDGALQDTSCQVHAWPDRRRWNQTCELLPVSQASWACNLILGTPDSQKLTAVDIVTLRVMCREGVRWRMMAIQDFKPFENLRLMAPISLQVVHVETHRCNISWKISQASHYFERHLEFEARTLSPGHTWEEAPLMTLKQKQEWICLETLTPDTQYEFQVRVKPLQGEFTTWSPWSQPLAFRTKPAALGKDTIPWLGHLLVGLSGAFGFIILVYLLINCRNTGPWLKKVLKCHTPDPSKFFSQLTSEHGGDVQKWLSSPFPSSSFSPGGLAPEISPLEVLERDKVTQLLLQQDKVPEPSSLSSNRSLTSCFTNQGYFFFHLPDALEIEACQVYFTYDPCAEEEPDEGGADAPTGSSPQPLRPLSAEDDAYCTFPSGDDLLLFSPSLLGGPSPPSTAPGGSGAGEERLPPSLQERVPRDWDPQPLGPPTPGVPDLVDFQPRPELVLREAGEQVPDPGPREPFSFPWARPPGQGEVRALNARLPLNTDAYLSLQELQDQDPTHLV
T1 sequence (looked up) 2: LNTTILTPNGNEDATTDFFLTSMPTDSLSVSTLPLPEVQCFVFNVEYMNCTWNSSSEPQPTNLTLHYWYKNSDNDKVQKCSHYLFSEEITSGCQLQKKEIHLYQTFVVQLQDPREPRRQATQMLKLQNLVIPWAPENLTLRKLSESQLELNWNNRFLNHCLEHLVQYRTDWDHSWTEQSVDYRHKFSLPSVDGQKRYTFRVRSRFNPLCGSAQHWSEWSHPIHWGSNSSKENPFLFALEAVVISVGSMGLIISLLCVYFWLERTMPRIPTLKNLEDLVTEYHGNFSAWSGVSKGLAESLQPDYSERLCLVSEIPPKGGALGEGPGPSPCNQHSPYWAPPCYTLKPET

[2] = target: T2, CD122/CD132 on human lymphocytes (CD8+ T cells and NK cells in human PBMCs) (human, UniProt P31785 23-369); experiment: cell-based or functional assay
T2 sequence 1: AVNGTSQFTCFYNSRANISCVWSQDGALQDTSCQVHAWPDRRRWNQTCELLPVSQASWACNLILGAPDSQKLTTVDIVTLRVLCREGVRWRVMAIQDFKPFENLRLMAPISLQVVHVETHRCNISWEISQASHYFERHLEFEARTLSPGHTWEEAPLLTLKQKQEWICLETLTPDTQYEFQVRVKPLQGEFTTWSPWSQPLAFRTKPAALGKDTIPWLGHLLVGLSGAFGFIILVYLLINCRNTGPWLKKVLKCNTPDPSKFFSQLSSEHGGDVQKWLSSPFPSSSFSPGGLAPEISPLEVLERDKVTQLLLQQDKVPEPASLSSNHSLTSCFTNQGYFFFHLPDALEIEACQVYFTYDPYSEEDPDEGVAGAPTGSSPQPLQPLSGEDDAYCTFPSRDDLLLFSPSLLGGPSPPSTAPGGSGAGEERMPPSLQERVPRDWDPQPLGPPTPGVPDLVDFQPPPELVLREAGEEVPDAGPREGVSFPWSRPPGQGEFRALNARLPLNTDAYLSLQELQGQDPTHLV
T2 sequence 2: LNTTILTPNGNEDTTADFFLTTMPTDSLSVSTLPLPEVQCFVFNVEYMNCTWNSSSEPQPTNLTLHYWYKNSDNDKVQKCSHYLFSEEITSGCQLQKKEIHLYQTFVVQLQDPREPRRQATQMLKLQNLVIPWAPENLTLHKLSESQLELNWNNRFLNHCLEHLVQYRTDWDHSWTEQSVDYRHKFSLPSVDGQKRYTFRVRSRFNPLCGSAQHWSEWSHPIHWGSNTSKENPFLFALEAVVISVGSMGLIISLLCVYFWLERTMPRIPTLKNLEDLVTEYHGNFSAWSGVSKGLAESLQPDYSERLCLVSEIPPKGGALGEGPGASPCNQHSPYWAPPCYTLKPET

[3] = target: T3, human complement component 1q (C1q) (human, UniProt P02745 23-245; P02746 28-253; P02747 29-245); experiment: BLI; tested as the mixture XENP24306+XENP32803
T3 construct: The subunit composition is from general knowledge; also called human C1q

cynomolgus monkey FcRn = target: T4, cynomolgus monkey FcRn (cynomolgus monkey, UniProt Q8SPV9 24-297; Q8SPW0 21-119); experiment: BLI, pH 6.0; tested as the mixture
T4 construct: The construct is not described

human FcRn = target: T5, human FcRn (human, UniProt P55899 24-297; P61769 21-119); experiment: BLI, pH 6.0; tested as the mixture
T5 construct: The construct is not described; also called human neonatal Fc receptor

mouse FcRn = target: T6, mouse FcRn (mouse, UniProt Q61559 22-297; P01887 21-119); experiment: BLI, pH 6.0; tested as the mixture
T6 construct: The construct is not described
T6 sequence (looked up): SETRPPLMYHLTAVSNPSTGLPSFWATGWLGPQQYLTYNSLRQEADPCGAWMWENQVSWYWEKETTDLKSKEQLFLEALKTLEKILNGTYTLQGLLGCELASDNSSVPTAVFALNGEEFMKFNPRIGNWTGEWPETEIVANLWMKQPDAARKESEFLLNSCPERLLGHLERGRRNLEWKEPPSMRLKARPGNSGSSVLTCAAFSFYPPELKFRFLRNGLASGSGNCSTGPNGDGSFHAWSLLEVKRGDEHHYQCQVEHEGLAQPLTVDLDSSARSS
T6 sequence (b2m, looked up): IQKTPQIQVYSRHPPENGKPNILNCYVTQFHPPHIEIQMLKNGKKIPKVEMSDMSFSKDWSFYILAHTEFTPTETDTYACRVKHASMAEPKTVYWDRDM

T4 sequence (Q8SPV9 24-297 limits assumed, chain 1 of 2): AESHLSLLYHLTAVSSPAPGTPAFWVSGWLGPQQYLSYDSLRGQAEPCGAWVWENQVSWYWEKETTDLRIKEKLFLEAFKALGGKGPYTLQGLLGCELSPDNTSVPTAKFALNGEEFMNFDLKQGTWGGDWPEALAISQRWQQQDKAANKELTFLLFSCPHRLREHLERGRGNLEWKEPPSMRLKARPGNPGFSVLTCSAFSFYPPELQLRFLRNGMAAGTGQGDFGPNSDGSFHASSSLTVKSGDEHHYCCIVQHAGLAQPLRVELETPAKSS
T4 sequence (Q8SPW0 21-119 limits assumed, chain 2 of 2): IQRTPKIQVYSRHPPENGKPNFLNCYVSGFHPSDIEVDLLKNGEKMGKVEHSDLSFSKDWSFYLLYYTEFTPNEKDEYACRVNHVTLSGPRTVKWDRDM
T3 sequence (P02745 23-245 limits assumed, chain 1 of 3): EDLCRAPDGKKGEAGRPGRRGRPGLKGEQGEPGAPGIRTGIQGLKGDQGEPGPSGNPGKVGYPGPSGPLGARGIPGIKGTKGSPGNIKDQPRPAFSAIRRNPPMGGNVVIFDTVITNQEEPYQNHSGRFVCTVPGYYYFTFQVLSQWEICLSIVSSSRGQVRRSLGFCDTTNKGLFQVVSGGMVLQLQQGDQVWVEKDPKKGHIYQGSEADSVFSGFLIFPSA
T3 sequence (P02746 28-253 limits assumed, chain 2 of 3): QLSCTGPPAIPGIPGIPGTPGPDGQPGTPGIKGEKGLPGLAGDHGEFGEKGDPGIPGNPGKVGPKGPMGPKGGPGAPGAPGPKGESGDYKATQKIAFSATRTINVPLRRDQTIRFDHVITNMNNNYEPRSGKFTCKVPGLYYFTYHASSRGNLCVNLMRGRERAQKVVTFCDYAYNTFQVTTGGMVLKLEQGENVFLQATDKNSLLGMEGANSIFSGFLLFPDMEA
T3 sequence (P02747 29-245 limits assumed, chain 3 of 3): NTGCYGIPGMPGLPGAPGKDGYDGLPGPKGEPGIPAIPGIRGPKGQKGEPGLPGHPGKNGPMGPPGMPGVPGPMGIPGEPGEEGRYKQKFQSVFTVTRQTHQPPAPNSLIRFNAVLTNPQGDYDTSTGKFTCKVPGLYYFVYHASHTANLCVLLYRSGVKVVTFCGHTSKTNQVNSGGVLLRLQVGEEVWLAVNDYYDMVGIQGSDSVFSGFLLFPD
T5 sequence (P55899 24-297 limits assumed, chain 1 of 2): as the sequence (Q8SPV9 24-297 limits assumed, chain 1 of 2) above, with D39N, Q44E, S99G, G189S, N190S, M217L, T269S counted along it
T5 sequence (P61769 21-119 limits assumed, chain 2 of 2): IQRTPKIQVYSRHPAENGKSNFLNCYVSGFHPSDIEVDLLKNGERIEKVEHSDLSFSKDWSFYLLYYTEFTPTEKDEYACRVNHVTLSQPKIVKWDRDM

B1: XENP24306 (Fc fusion)
chain 1: NWVNVISDLKKIEDLIQSMHIDATLYTESNVHPSCKVTAMKCFLLELQVISLESGDASIHDTVQDLIILANNSLSSNGNVTESGCKECEELEEKNIKEFLQSFVHIVQMFINTSGGGGSEPKSSDKTHTCPPCPAPPVAGPSVFLFPPKPKDTLMISRTPEVTCVVVDVKHEDPEVKFNWYVDGVEVHNAKTKPREEEYNSTYRVVSVLTVLHQDWLNGKEYKCKVSNKALPAPIEKTISKAKGQPREPQVYTLPPSREEMTKNQVSLTCDVSGFYPSDIAVEWESDGQPENNYKTTPPVLDSDGSFFLYSKLTVDKSRWEQGDVFSCSVLHEALHSHYTQKSLSLSPGK
chain 2: ITCPPPMSVEHADIWVKSYSLYSRERYICNSGFKRKAGTSSLTECVLNKATNVAHWTTPSLKCIRGGGGSEPKSSDKTHTCPPCPAPPVAGPSVFLFPPKPKDTLMISRTPEVTCVVVDVKHEDPEVKFNWYVDGVEVHNAKTKPREEQYNSTYRVVSVLTVLHQDWLNGKEYKCKVSNKALPAPIEKTISKAKGQPREPQVYTLPPSREQMTKNQVKLTCLVKGFYPSDIAVEWESNGQPENNYKTTPPVLDSDGSFFLYSKLTVDKSRWQQGNVFSCSVLHEALHSHYTQKSLSLSPGK
notes: All experiments used a mixture of XENP24306 (~82%) and XENP32803 (~18%), printed as 'XENP24306+XENP32803'; Each result is written once for each of the two members; also called XmAb24306; XENP24306+XENP32803 (the ~82% component of the tested combination)
Q: B1 was tested. Which “CD8+ T cell proliferation in cynomolgus monkey PBMCs, EC50” value [1] did it give?
A: 3.8 µg/mL

Q: And the “NK-cell proliferation in cynomolgus monkey PBMCs, EC50” value [1]?
A: 0.5 µg/mL

Q: And the “CD8+ T cell proliferation (Ki67+) in human PBMCs, EC50” value [2]?
A: 12.7 µg/mL

Q: What about the “NK-cell proliferation (Ki67+) in human PBMCs, EC50” value [2] of the same binder?
A: 1.2 µg/mL

Q: And the “potency on CD8+ terminal effector T cell proliferation (Ki67) in human PBMC, fold lower than XENP22853 (wild-type IL-15/wild-type IL-15Rα heterodimer Fc fusion)” value [2]?
A: ~400 fold

Q: What about the “potency on CD8+ terminal effector T cell proliferation (Ki67) in human PBMC, fold lower than recombinant wild-type IL-15” value [2] of the same binder?
A: ~900 fold

Q: Does B1 bind [3]?
A: no binding

Q: Does B1 bind (cynomolgus monkey FcRn)?
A: binds

Q: Does B1 bind (human FcRn)?
A: binds

Q: Does B1 bind (mouse FcRn)?
A: binds

B2: XENP32803 (Fc fusion)
chain 1: NWVNVISDLKKIEDLIQSMHIDATLYTESNVHPSCKVTAMKCFLLELQVISLESGDASIHDTVQDLIILANNSLSSNGNVTESGCKECEELEEKNIKEFLQSFVHIVQMFINTSGGGGSEPKSSDKTHTCPPCPAPPVAGPSVFLFPPKPKDTLMISRTPEVTCVVVDVKHEDPEVKFNWYVDGVEVHNAKTKPREEEYNSTYRVVSVLTVLHQDWLNGKEYKCKVSNKALPAPIEKTISKAKGQPREPQVYTLPPSREEMTKNQVSLTCDVSGFYPSDIAVEWESDGQPENNYKTTPPVLDSDGSFFLYSKLTVDKSRWEQGDVFSCSVLHEALHSHYTQKSLSLSPGK
chain 2: ITCPPPMSVEHADIWVKSYSLYSRERYICNSGFKRKAGTSSLTECVLNKATNVAHWTTPSLKCIRGGGGSEPKSSDKTHTCPPCPAPPVAGPSVFLFPPTPKDTLMISRTPEVTCVVVDVKHEDPEVKFNWYVDGVEVHNAKTKPREEQYNSTYRVVSVLTVLHQDWLNGKEYKCKVSNKALPAPIEKTISKAKGQPREPQVYTLPPSREQMTKNQVKLTCLVKGFYPSDIAVEWESNGQPENNYKTTPPVLDSDGSFFLYSKLTVDKSRWQQGNVFSCSVLHEALHSHYTQKSLSLSPGK
notes: All experiments used a mixture of XENP24306 (~82%) and XENP32803 (~18%), printed as 'XENP24306+XENP32803'; Each result is written once for each of the two members; also called XENP24306+XENP32803 (the ~18% component of the tested combination); IL15/IL15Rα heterodimeric protein
Q: How did the “CD8+ T cell proliferation in cynomolgus monkey PBMCs, EC50” value [1] turn out when B2 was run?
A: 3.8 µg/mL

Q: What about the “NK-cell proliferation in cynomolgus monkey PBMCs, EC50” value [1] of the same binder?
A: 0.5 µg/mL

Q: What about the “CD8+ T cell proliferation (Ki67+) in human PBMCs, EC50” value [2] of the same binder?
A: 12.7 µg/mL

Q: And the “NK-cell proliferation (Ki67+) in human PBMCs, EC50” value [2]?
A: 1.2 µg/mL

Q: What about the “potency on CD8+ terminal effector T cell proliferation (Ki67) in human PBMC, fold lower than XENP22853 (wild-type IL-15/wild-type IL-15Rα heterodimer Fc fusion)” value [2] of the same binder?
A: ~400 fold

Q: What about the “potency on CD8+ terminal effector T cell proliferation (Ki67) in human PBMC, fold lower than recombinant wild-type IL-15” value [2] of the same binder?
A: ~900 fold

Q: Does B2 bind [3]?
A: no binding

Q: Does B2 bind (cynomolgus monkey FcRn)?
A: binds

Q: Does B2 bind (human FcRn)?
A: binds

Q: Does B2 bind (mouse FcRn)?
A: binds
